Test results from patent US7892733.

Assays:
[1] = target: full-length human G-CSF receptor (human) (UniProt Q99062); experiment: cell-based or functional assay
[2] = target: endogenous IL-3 receptors of BaF3 cells (UniProt P26952); experiment: cell-based or functional assay
UniProt P26952, sequence (P26952 17-396): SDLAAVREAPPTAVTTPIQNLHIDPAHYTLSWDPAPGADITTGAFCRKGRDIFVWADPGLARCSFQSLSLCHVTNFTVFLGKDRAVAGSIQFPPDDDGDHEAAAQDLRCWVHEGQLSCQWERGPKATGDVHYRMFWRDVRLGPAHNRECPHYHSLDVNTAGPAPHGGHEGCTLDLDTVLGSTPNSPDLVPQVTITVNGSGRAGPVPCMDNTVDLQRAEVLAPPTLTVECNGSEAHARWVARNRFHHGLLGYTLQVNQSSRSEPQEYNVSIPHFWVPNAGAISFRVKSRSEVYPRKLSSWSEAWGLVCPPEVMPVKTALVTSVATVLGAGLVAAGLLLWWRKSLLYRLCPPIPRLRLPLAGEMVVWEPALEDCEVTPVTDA

UniProt Q99062, sequence (Q99062 25-836): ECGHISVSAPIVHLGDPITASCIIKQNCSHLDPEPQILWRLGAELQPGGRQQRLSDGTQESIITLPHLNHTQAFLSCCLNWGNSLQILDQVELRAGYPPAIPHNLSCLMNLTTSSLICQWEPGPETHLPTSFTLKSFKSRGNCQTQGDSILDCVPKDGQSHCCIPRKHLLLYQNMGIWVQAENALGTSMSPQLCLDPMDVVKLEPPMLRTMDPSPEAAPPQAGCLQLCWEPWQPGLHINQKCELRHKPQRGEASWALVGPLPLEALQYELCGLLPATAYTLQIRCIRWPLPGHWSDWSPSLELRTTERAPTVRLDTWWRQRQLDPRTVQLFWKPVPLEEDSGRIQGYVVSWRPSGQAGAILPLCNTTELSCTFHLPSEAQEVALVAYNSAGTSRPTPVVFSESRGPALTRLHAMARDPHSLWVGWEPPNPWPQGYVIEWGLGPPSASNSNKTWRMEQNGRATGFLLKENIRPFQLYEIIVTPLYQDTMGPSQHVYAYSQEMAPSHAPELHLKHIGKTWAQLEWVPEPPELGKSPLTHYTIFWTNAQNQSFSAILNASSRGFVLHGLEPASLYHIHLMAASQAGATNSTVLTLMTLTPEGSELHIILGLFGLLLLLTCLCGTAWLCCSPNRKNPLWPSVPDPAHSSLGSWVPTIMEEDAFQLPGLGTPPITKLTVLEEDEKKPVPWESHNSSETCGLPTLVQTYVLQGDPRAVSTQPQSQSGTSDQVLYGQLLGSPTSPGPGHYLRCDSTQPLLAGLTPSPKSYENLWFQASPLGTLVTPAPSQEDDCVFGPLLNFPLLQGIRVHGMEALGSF

## G-CSF (ligand)
[1]
  luminescence output-fold stimulation over background (assay medium alone); luciferase reporter, HuG-CSFR-luc (clone 40) cells, 0.8 ng/mL and 5.0 ng/mL GCSF, four hours: 3 fold

## recombinant murine interleukin-3 (from UniProt P01586 33-166) (ligand)
[2]
  PLAP reporter activity (4-MU fluorescence 360/460 nm), +IL-3, - filtration; 3X-RS-pGTPLAP in BaF3, 25 ng/ml rMuIL-3: 85
  PLAP reporter activity, +IL-3, + filtration; 3X-RS-pGTPLAP in BaF3: 82
  PLAP reporter activity, +IL-3, + filtration; 6X-RS-pGTPLAP in BaF3: 177
  PLAP reporter activity, +IL-3, + filtration; 9X-RS-pGTPLAP in BaF3: 257
  PLAP reporter activity, +IL-3, + filtration; 12X-RS-pGTPLAP in BaF3: 384
  PLAP reporter activity, +IL-3, + filtration; Greater than 12X-RS-pGTPLAP in BaF3: 389
  PLAP reporter activity, +IL-3, - filtration; 6X-RS-pGTPLAP in BaF3: 175
  PLAP reporter activity, +IL-3, - filtration; 9X-RS-pGTPLAP in BaF3: 276
  PLAP reporter activity, +IL-3, - filtration; 12X-RS-pGTPLAP in BaF3: 402
  PLAP reporter activity, +IL-3, - filtration; Greater than 12X-RS-pGTPLAP in BaF3: 384
  PLAP reporter activity, +IL-3, average - baseline; 3X-RS-pGTPLAP in BaF3: 70
  PLAP reporter activity, +IL-3, average - baseline; 6X-RS-pGTPLAP in BaF3: 160
  PLAP reporter activity, +IL-3, average - baseline; 9X-RS-pGTPLAP in BaF3: 250
  PLAP reporter activity, +IL-3, average - baseline; 12X-RS-pGTPLAP in BaF3: 375
  PLAP reporter activity, +IL-3, average - baseline; Greater than 12X-RS-pGTPLAP in BaF3: 370
  fold stimulation (avg +IL-3 / avg -IL-3); 3X-RS-pGTPLAP in BaF3: 3.5 fold
  fold stimulation (avg +IL-3 / avg -IL-3); 6X-RS-pGTPLAP in BaF3: 5.4 fold
  fold stimulation (avg +IL-3 / avg -IL-3); 9X-RS-pGTPLAP in BaF3: 6.2 fold
  fold stimulation (avg +IL-3 / avg -IL-3); 12X-RS-pGTPLAP in BaF3: 8.4 fold
  fold stimulation (avg +IL-3 / avg -IL-3); Greater than 12X-RS-pGTPLAP in BaF3: 11.2 fold
